Laboratory results: PMC13411919

Target: trimeric BG505.SOSIP.664 T332N-avi-biotinylated protein (HIV-1 (BG505, clade A))
Test: native gel or EMSA; BN-PAGE (NuPAGE 4-12% BisTris) of the SEC trimer peak, before and after biotinylation

“trimeric BG505.SOSIP.664 T332N-avi-biotinylated protein (domain or fragment)” showed a stoichiometry N of 3.
